The target of this assay is IL-1 receptor expressed by INS-1 cells (rat (INS-1 cells are derived from a rat insulinoma)) (UniProt Q02955).

Turning to IL-1β (ligand), the NO release was found to be 6.56 µM.

Values taken from patent publication US20140011728A1.
